Here are results for one protein from article PMC11600153, “Mg^2+-Ion Dependence Revealed for a BAHD 13-O-β-Aminoacyltransferase from Taxus Plants” (JACS Au, 2024).

Substrate in the data set: CC(C)=C[C@H](N)[C@@H](O)C(=O)O
Put plainly: LC/ESI-MS/MS product quantification, Michaelis-Menten fit. It is filed as biochemical, Brevibacillus parabrevis. The following applies: 7 varied 0.05-1 mM, CoA 1 mM, ATP 1 mM, MgCl2, phosphate pH 8, 31 °C.

B1: PheAT (truncated TycA module of tyrocidine synthase) (Brevibacillus parabrevis) (protein)
chain: MLANQANLIDNKRELEQHALVPYAQGKSIHQLFEEQAEAFPDRVAIVFENRRLSYQELNRKANQLARALLEKGVQTDSIVGVMMEKSIENVIAILAVLKAGGAYVPIDIEYPRDRIQYILQDSQTKIVLTQKSVSQLVHDVGYSGEVVVLDEEQLDARETANLHQPSKPTDLAYVIYTSGTTGKPKGTMLEHKGIANLQSFFQNSFGVTEQDRIGLFASMSFDASVWEMFMALLSGASLYILSKQTIHDFAAFEHYLSENELTIITLPPTYLTHLTPERITSLRIMITAGSASSAPLVNKWKDKLRYINAYGPTETSICATIWEAPSNQLSVQSVPIGKPIQNTHIYIVNEDLQLLPTGSEGELCIGGVGLARGYWNRPDLTAEKFVDNPFVPGEKMYRTGDLAKWLTDGTIEFLGRIDHQVKIRGHRIELGEIESVLLAHEHITEAVVIAREDQHAGQYLCAYYISQQEATPAQLRDYAAQKLPAYMLPSYFVKLDKMPLTPNDKIDRKALPEPDLTANQSQAAYHPPRTETESILVSIWQNVLGIEKIGIRDNFYSLGGDSIQAIQVVARLHSYQLKLETKDLLNYPTIEQVALFVKSTTRKSD
notes: truncated TycA (PheAT)
For orientation: Km means the concentration of substrate that gives half-maximal velocity. The term kcat denotes the number of substrate molecules converted per active site and unit of time at saturation. In the case of B1, the Km is on record as 112 µM and the kcat was 0.0083 s⁻¹.
